Among the data in PMC7203880 are stoichiometry N values, retold here.

Several values for one entry are separate records, joined by “and”; a condition that tells them apart may be missing. Equal entries are not always repeated.

This assay concerns the target Slr0058 protein from Synechocystis sp. PCC 6803, His-tagged (Synechocystis sp. PCC 6803). In words: SEC; Superose 6 Increase 10/300 GL on ÄKTAmicro; 100 mM KCl, 50 mM Tris-HCl pH 7.8, 5 mM MgCl2; 100 µl of Slr0058 at 0.313 mg/ml. In general terms: SEC sorts molecules by how far they enter the pores of the column.

As a reminder, the stoichiometry N is a count of units in the complex or per binding partner.

In the case of “Slr0058 protein from Synechocystis sp. PCC 6803, His-tagged (natural protein)”, the stoichiometry N is 2 and 3.
